B1: DnaB with a C-terminal hexahistidine tag (DnaB-His; 56 kDa) (enzyme, Caulobacter crescentus, UniProt A0A0H3C7A8 1-507, looked up)
chain: MPMSLVPALDLVLPGLPEPTINVAPHNMEAEQALLGVLLYDNAAYERLSDNLQARCFYEPFHQRLFQAIETHVRKGQLAEPILLADEFKKDPAFEELGGLRYLADLVDRAPPAANVGDYARVIFDLSLRRELIRIGGDIATAAQGGNDEKRNARDQIEAAEQSLYSLAESGAASSGFVSFGDALRGAVEMTAEAYSRDGGMSGVSTDLMDLDQKIGGLHPSDLIILAGRPSMGKTALATNIAFNIAKKYAYEIQPDGTKKTVQGGVVAFYSLEMSAEQLALRMLADASGVSGDRLRKGEIDASEFGRVRDAAMELQNAPLYIDATGGISIAKLTARARRLKRQVGLDLIVVDYLQLVTGSDLGANANRVQEVSQITMGLKALAKELSVPVIALSQLSRQVEQRDDKRPQLSDLRESGSIEQDADMVWFVYREAYYVGRAEPREGTPEHLTWQEEMDRLQGLAEVIIAKQRHGPIGTVRLSFNSDTTRFGNLARDHYFAQARNIPSDE
notes: Replicative DNA helicase DnaB (CCNA_01737) of Caulobacter crescentus; Hexamer by size exclusion chromatography; Construction details are in the Supplemental Materials; also called C. crescentus DnaB; CCNA_01737; source: E. coli, purified (procedure in the Supplemental Material); not shown: His6, C-terminal, kept

In series [1] the target is T1, DnaB-His (Caulobacter vibrioides, UniProt A0A0H3C7A8).
T1 construct: gene CCNA_01737; full-length, C-terminal His6 tag kept, expressed in E. coli Rosetta 2(DE3), 56 kDa monomer, hexamer (330 kDa) from size exclusion chromatography
The experiment in a line: ATPase assay, [alpha-32P]ATP, TLC on PEI cellulose, Michaelis-Menten fit. Conditions: pH 7.5, 10 mM magnesium acetate, 30 C, 5-160 uM ATP, 8.3 nM hexamer, no DciA; labelled compound. In kind it is biochemical.

Series [2] deals with the molecule itself. Kind of series: SEC; Superdex 200 Increase 10/300 GL; 25 mM Tris-HCl pH 7.5, 300 mM sodium chloride, 20% glycerol, 0.1 mM ATP, 5 mM magnesium chloride; 0.2 ml/min; DnaB-His 10 nmol, His-DciA 25 nmol, alone or mixed; fractions on SDS-PAGE with Coomassie staining.
Series [3] has as its target B1. The series is described as above. Conditions: both partners purified.

Take `Nc1ncnc2c1ncn2[C@@H]1O[C@H](COP(=O)(O)OP(=O)(O)OP(=O)(O)O)[C@@H](O)[C@H]1O` [ATP]: in series [1], the “ATPase assay, [alpha-32P]ATP, TLC on PEI cellulose, Michaelis-Menten fit” value was “ATP hydrolysis was readily observed at various concentrations of wild-type DnaB-His”.
Regarding B1, in series [2], the stoichiometry N (commonly a count of units in the complex or per binding partner) is 6.

B2: DciA with an N-terminal hexahistidine tag (His-DciA; 21 kDa) (natural protein, Caulobacter crescentus, UniProt A0A0H3C5R2 1-179, looked up)
chain: MRRPLPTPEEAIAILRSKRTKPQRRPPPPAGKNLAPLLKDLEDRFGKGPAALQARWKEIVGDTLARRTEPVRIIKGRNGEGGALELRVDGPVASLIQHQAPQITARLDMLLGKGVVTRLRIVQGPVKAPAAAPSTRLRRKPPLDAALEKQLADSLAEQPDGALKQALLKLGRGVLSSER
notes: DciA (CCNA_00380) of Caulobacter crescentus; This is surmised from the primer; construction details are in the Supplemental Materials; source: E. coli, purified (procedure in the Supplemental Material); not shown: His6, N-terminal, kept
Take B2: the “stoichiometry N” value in series [3] came to 1.9 DnaB-His per His-DciA.

For the origin of these results see paper PMC9825169, “The Caulobacter crescentus DciA promotes chromosome replication through topological loading of the DnaB replicative helicase at replication forks” (Nucleic Acids Research, 2022).
